Experimental findings from PMC3034312 are described below.

Substrate in this series: CC(C)=CCC/C(C)=C/CC/C(C)=C/CO[P@@](=O)(O)OP(=O)(O)O
Put plainly: steady-state kinetics, 30-min radiolabel incubations. In kind it is biochemical, Streptomyces clavuligerus. The following applies: labelled compound ([1-3H]-FPP, 0.25 to 7.5 μM).

B1: SSCG_03688; (+)-T-muurolol synthase (Streptomyces clavuligerus) (protein)
chain: MSLNHSDLMFYCPVDDLPHPAASGVNDRTLDWASGQGIPTADRDAGRLRAMAPGLLAARIAPDARGPVLDAFADHHTWLFAFDDEYCDRADGSGITEWASFLARLHRVVETGESALLPGNPYGLALRDIACRLSTYTTPAQLAEWLEALRSYFAALVWERSRRRDDDRLQSLDDYLLLRLRNGAMHTSITLLDTVNGYVLPRELRETPGVRALVEMTALLVSVDNDILSHHKESTSGTREANLLDVLGRTGHTTPGEAVAQAVALRNEIMRQFVRVAERVRTPAAVPELYRFTTGLARWIRANLDFSLTTTRYTGPVTERAALSPHEVPPLSGQGPAPARSDVIGWWWRIPEPLPEPGSDGADTPVRKRRAGDRPPTAGRGGAPHHQRTGPPPPVLPGGITASRSSGLQQSTWRREHR
Take B1: the Km was determined as 2.7 ± 0.3 µM and the kcat is reported as 1.63 ± 0.09 × 10^−3 s^−1.

B2: SSCG_02150; (−)-δ-cadinene synthase (Streptomyces clavuligerus) (protein)
chain: MSTRPVEGSAIWDVLSPHSPHAAAADGKTLVWVEAGELCGHDTAESANLARIRPGLLAAFCHPKATEDDLTLITKWMAWLFLLDDRIDESDLGRDADLLDGHLQDLQGVALGIRTASGPMSRALEEIITQASAGMGDAWQLRFRRNISDYLLACVWQAAHRQAGEFPDPEVFPHWRRAFGAIMPSFDLIERTDGGALPSCVYYSRPYQSLLTAAADLVCWTNDLMTVDKEAAHGDLHNLVLVTEHDRHQDRRTASAAVSAACEQRMRAHTSARRDLTGLTAALGLPDTVRTHADDCAASLLVWVRGHLEWGLETPRYRPGTTGTGTD
B2: the Michaelis-Menten constant (Km) was determined as 1.4 ± 0.1 µM and the kcat is 1.14 ± 0.03 × 10^−3 s^−1.

Broadly, the Km is the substrate concentration at which the rate is half of its maximum.
